Results taken from patent US20240400689A1 (ANTENGENE BIOLOGICS, published 2024).
Positions count from the first letter of the chain named.

T1: human CD276 protein (human, UniProt Q5ZPR3 29-534)
T1 construct: whole, on cells; for SKOV3 and the other cancer lines the protein is the cells' own; also called B7-H3; B7H3
T1 sequence (looked up): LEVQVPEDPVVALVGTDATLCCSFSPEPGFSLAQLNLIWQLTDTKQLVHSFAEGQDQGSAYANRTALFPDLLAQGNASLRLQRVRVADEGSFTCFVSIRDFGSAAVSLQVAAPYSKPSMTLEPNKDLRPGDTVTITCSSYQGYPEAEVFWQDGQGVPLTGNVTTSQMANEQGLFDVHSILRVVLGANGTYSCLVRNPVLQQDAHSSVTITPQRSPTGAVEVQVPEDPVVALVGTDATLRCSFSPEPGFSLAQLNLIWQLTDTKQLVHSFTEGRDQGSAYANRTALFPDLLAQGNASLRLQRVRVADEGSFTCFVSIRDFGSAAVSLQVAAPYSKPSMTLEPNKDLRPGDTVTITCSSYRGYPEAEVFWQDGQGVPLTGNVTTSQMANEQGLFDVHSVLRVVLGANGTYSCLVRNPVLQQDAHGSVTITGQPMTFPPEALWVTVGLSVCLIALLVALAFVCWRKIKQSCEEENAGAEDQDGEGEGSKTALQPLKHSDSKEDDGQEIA

T2: HUMAN B7H3 (Biacore analyte) (human, UniProt Q5ZPR3 29-461, limits assumed)
T2 construct: also called hB7H3
T2 sequence (looked up): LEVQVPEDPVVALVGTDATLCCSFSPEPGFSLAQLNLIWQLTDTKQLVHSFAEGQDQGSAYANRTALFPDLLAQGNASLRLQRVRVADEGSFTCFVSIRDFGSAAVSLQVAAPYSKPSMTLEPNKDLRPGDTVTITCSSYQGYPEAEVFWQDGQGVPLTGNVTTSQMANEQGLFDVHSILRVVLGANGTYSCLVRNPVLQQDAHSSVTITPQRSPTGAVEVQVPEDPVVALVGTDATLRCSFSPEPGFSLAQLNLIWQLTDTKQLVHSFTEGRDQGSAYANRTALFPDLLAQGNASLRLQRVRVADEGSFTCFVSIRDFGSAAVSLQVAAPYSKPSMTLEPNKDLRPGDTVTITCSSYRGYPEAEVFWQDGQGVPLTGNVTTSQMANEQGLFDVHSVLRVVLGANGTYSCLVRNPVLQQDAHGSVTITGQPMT

B1: hVH1-hVL5-30 (antibody, V domains shown)
VH: QVQLQESGPGLVKPSQTLSLTCTVSGYSITSDYAWNWIRQHPGKGLEWIGYISHSGSTSYNPSLKSRVTISRDTSKNQFSLKLSSVTAADTAVYYCARSLGRRWYFDVWGQGTTVTVSS
VL: DIVMTQSPLSLPVTPGEPASISCKSSQSLLNSSTQKNYLAWYLQKPGQSPQLLIYFASTRDSGVPDRFSGSGSGTDFTLKISRVEAEDLGVYFCQQHYIIPFTFGQGTKLEIK
B2: mVH-mVL1-30 (antibody, V domains shown)
VH: EVQLVESGPGLVKPSQSLSLTCTVTGYSITSDYAWNWIRQFPGNKLEWMGYISHSGSTSYNPSLKSRISITRDTSKNQFFLQLNSVTTEDTATYYCARSLGRRWYFDVWGAGTTVTVSS
VL: DIVMTQSPSSLAMSVGQKVTLSCKSSQSLLQSSTQKNYLAWYQQKPGQSPKLLVYFASTRDSGVPDRFIGSGSGTEFTLTISSVQAEDLADYFCQQHYIIPFTFGAGTKLEIK
B3: 6-D8-E7-A11 (human IgG1 chimeric antibody) (antibody, V domains shown)
VH: QVHLQQPGAELVKPGASVKLSCKASGYTFTNYWMHWVKRRPGQGLEWIGMIHPNSGTTSFNEKFKSKATLTVDKSSSTAYMQLSSLTSEDSAVYYCAGYYGSSFSWFTYWGQGTLVTVSA
VL: QAVVTQESALTTSPGGTVILTCRSSTGAVTTSNFANWVQEKPDHLFTGLIGGTSNRAPGVPVRFSGSLIGDKAALTITGAQTEDDAMYFCALWYSTHYVFGGGTKVTVL
notes: human IgG1 chimeric antibody of the mouse clone
B4: MGC018 (antibody, V domains shown)
VH: EVQLVESGGGLVKPGGSLRLSCAASGFTFSSYGMSWVRQAPGKGLEWVATINSGGSNTYYPDSLKGRFTISRDNAKNSLYLQMNSLRAEDTAVYYCARHDGGAMDYWGQGTTVTVSS
VL: DIQMTQSPSSLSASVGDRVTITCRASESIYSYLAWYQQKPGKAPKLLVYNTKTLPEGVPSRFSGSGSGTDFTLTISSLQPEDFATYYCQHHYGTPPWTFGQGTRLEIKR
B5: 18-F9-D8-G7 (human IgG1 chimeric antibody) (antibody, V domains shown)
VH: EVQLQQSGPELVRPGVSVKISCKGSGYTFTDYAMHWVKQSHAQSLEWIGIINTYSGDTNYNQKFKGKATMTVDKSSSTAYMGLARLTSEDSAIFYCARGGGNYPYWYFDVWGAGTTVTVSS
VL: ENVLTQSPAIMSASPGEKVTMTCRASSSVSSSYLHWYQQKSGDSPKLWIYSTSNLASGVPARFSGSGSGTSYSLTISSVEAEDAATYYCQQFSVYPLTFGAGTKLEIK
notes: as for B3
B6: 7-E1-F8-F6 (human IgG1 chimeric antibody) (antibody, V domains shown)
VH: QVQLQQSGPELVKPGASVQMSCKASGYTFTDYVISWVNQRTGQGLEWIGEIYPRSGNTYYNEKFKGKATLTADKSSNTAYMQLSSLTSEDSAVYFCARFDIAYSFDYWGQGTTLTVSS
VL: DVVMTQTPLSLPVSLGDQASISCRSTQSLVHSNGVTYLHWYLQKPGQSPKLLIYKVSNRFSGVPDRFSGSGSGTDFTLKISRVEAEDLGVYFCSQGTHVPWTFGGGTKLEIK
notes: as for B3
B7: 16-C6-F7-F5 (human IgG1 chimeric antibody) (antibody, V domains shown)
VH: QIQLVQSGPEVKKPGETVKISCKASGYTFTKYGINWVKQAPGEGLKWMGWIWTYTGKPTYGDDFKGRFAFSLETSASTAYLQISDLKIEDMATYFCARDDGYYYTMNYWGQGTSVTVSS
VL: B6 VL with V2I, T26S, V30L, S32T, V35D, P45A, S48P, G96S, V99I
notes: as for B3
B8: 15-C8-B5-G7 (human IgG1 chimeric antibody) (antibody, V domains shown)
VH: QVQLQQPGAELVKPGASVKLSCKASDYTFTSHWMHWVKQRPGQGLEWIGMIHPNSGTTHYNENFKNKATLTVDNSSSTAYMQLSSLTSEDSAVYYCAWGSSNSYFYAMAYWGQGTSVTVSS
VL: QAVVTQESALTTSPGETVTLTCRSSTGAVTTSNYANWVQEKPAHLFTGLIGGTNNRAPGVPARFSGSLIGDKAALTITGAQTEDEAIYFCALWFSNHLVFGGGTKLTVL
notes: as for B3
B9: 8-C3-E3-F3 (human IgG1 chimeric antibody) (antibody, V domains shown)
VH: EVQLVESGGGLVQPGGSLKLSCAASGFTFSNYGLSWVRLTPDKRLEVVATIGSYGGNTYYPDSVKGRFTISRDNAKNTLYLQMSSLKSEDTAIYYCARDIYYGNSEAWFAYWGQGTLVTVSA
VL: DIVMTQAAFSNPVTLGTSASISCRSSKSLLHSNGITYLYWYLQKPGQSPQLLIYQMSNLASGVPDRFSSSGSETDFTLRISRVEAEDVGVYYCAQNLELPWTFGGGTKLEIK
notes: as for B3
B10: 25-C8-D7-C5 (human IgG1 chimeric antibody) (antibody, V domains shown)
VH: EVQLQESGGGLVKPGGSLKFSCAASGFTFSTYAMSWVRQTPEKRLEWVATISGGGIDTYYPDSVKGRFTISRDNAKNTLYLQMNSLRSEDTAMYYCARQGSKGWGAMDYWGQGTSVTVSS
VL: QIVLTQSPAIMSASPGEKVTMTCRASSSVSFMHWYQQKSGTSPKRWIYETSKLASGVPDRFSGSGSGTSYSLTISSMEAEDAATYYCQQWSSNPLTFGAGTKLELK
notes: as for B3
B11: 25-D3-G4-C6 (human IgG1 chimeric antibody) (antibody, V domains shown)
VH: EIQLQQTGPELVKPGASVKISCKASGYSFTDYIILWVKQSHGMSLEWIGNINPYYNSTYYNLKFKGKATLTVDKSSSTAYMQLDSLTSEDSAVYYCARDSFDWYFGVWGAGTTVTVSS
VL: DVVMTQTPLSLPVSLGDQASISCRSSQSLVHSNGNTYLHWYLQKPGQSPKLLIYKVSNRFSGVPDRFSGSGSGTDFTLKISRVETEDLGIYFCSQSTHVPPLTFGAGTKLELK
notes: as for B3
B12: 20-A2-D10-G8 (human IgG1 chimeric antibody) (antibody, V domains shown)
VH: QVQLQQSGPELVRPGVSVKISCKGSGYTFTDYTMHWVKESHAQSLEWIGVISTYYGNTNYNQNFKGKATLTVDKSSSTAYMELAGLTSEDSAIYYCARASYGSGYGPYYWYFDVWGAGTTVTVSS
VL: DIQMTQSPASLFASVGETVTITCRASEKIYSYLAWYFQKQGKSPQFLVYNANALAEGVPSRFSGSGSGTQFSLKIKSLQPEDFGTYYCQHHYGSPVTFGAGSKLELK
notes: as for B3

Biological target: T1, human CD276 protein
Test: FACS titration on SKOV3 cells (MFI against Conc. (nM)); unit taken from the concentration axis

Row | EC50 | Binder
1 | 11.3 nM | B1
2 | 9.64 nM | B2

Biological target: T1, human CD276 protein
Test: cell-based or functional assay

Row | Binder | IC50 of indirect ADC cytotoxicity on SKOV3
3 | B3 | 0.008 nM
4 | B4 | 0.013 nM
5 | B5 | 0.014 nM
6 | B6 | 0.028 nM
7 | B7 | 0.009 nM
8 | B8 | 0.008 nM
9 | B9 | 0.012 nM
10 | B10 | 0.018 nM
11 | B11 | 0.023 nM
12 | B12 | 0.007 nM

Biological target: T2, HUMAN B7H3 (Biacore analyte)
Test: SPR, Biacore 8K, antibody captured, B7H3 as analyte, 1:1 binding

Row | Kd | koff | kon | Binder
13 | 0.749 nM | 0.000348 s⁻¹ | 464000 M⁻¹ s⁻¹ | B3
14 | 0.459 nM | 0.000408 s⁻¹ | 889000 M⁻¹ s⁻¹ | B4
15 | 0.489 nM | 0.000239 s⁻¹ | 489000 M⁻¹ s⁻¹ | B5
16 | 0.855 nM | 0.000222 s⁻¹ | 260000 M⁻¹ s⁻¹ | B6
17 | 0.645 nM | 0.000243 s⁻¹ | 377000 M⁻¹ s⁻¹ | B7
18 | 0.399 nM | 0.000196 s⁻¹ | 492000 M⁻¹ s⁻¹ | B8
19 | 0.444 nM | 0.00044 s⁻¹ | 990000 M⁻¹ s⁻¹ | B9
20 | 1.2 nM | 0.000243 s⁻¹ | 203000 M⁻¹ s⁻¹ | B10
21 | 2.31 nM | 0.00025 s⁻¹ | 108000 M⁻¹ s⁻¹ | B11
22 | 0.555 nM | 0.000282 s⁻¹ | 508000 M⁻¹ s⁻¹ | B12

Biological target: T1, human CD276 protein
Test: FACS on SKOV3 cells
Outline: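 Human IgG1 chimeric antibodies were tested for binding to trypsin-detached SKOV3 ovarian cancer cells by flow cytometry, with cells washed in FACS buffer and kept in the dark before acquisition. Titration read-out was MFI plotted against antibody concentration (nM).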

Row | EC50 | MFI (Max) | Binder
23 | 0.402 µg/mL | 2830 | B3
24 | 0.385 µg/mL | 2540 | B4
25 | 0.286 µg/mL | 4610 | B5
26 | 0.982 µg/mL | 3380 | B6
27 | 0.186 µg/mL | 5350 | B7
28 | 0.293 µg/mL | 2140 | B8
29 | 0.643 µg/mL | 2880 | B9
30 | 2.03 µg/mL | 3480 | B10
31 | 1.27 µg/mL | 3450 | B11
32 | 0.791 µg/mL | 3110 | B12

Biological target: T1, human CD276 protein
Test: cell-based or functional assay
Remark: another data set of the same source

Row | EC50 of antibody induced CDC effect | Binder | Top cytotoxicity (%), CDC
33 | 1.57 nM | B3 | 92.5%
34 | 1.67 nM | B4 | 93.3%
35 | 2.44 nM | B5 | 70.3%
36 | 1.69 nM | B6 | 91.9%
37 | 1.28 nM | B7 | 92.1%
38 | 7.54 nM | B8 | 86.1%
39 | 2.42 nM | B10 | 91.4%
40 | 2.41 nM | B11 | 89.7%
41 | 1.92 nM | B12 | 85.1%

Biological target: T1, human CD276 protein
Test: cell-based or functional assay
Remark: another data set of the same source

Row | EC50 of antibody induced ADCC effect on SKOV3 | Binder
42 | 0.0668 µg/mL | B3
43 | 0.503 µg/mL | B5
44 | 0.0177 µg/mL | B6
45 | 0.00664 µg/mL | B7
46 | 0.697 µg/mL | B8
47 | 0.111 µg/mL | B9
48 | 0.123 µg/mL | B10
49 | 0.0372 µg/mL | B11
50 | 0.263 µg/mL | B12
